Test [1] has as its target T1, DDB1:CRBN complex, full-length human CRBN (residues 1–442) with N-terminal biotinylated Avi-tag, co-expressed … (human, UniProt Q96SW2 1-442; Q16531 1-1140, biotin on the Avi-tag (BirA, 100% efficiency)). The test is described as follows: SPR; CC-220. Background: SPR reads the build-up and loss of mass on a sensor chip optically.
In test [2] the target is T1, DDB1:CRBN complex, full-length human …. Kind of test: SPR; CC-220. The source holds these as a separate data set.
Test [3] shares this target. The test is described as follows: SPR; pomalidomide.
For test [4] the target is unchanged. Kind of test: SPR; pomalidomide. The source holds these as a separate data set.
For test [5] the target is unchanged. Kind of test: SPR; CC-220 5 uM.
For test [6] the target is unchanged. The test is described as follows: SPR; pomalidomide 5 uM.

T1 sequence (Q96SW2 whole entry, chain 1 of 2, the tested form may be a part): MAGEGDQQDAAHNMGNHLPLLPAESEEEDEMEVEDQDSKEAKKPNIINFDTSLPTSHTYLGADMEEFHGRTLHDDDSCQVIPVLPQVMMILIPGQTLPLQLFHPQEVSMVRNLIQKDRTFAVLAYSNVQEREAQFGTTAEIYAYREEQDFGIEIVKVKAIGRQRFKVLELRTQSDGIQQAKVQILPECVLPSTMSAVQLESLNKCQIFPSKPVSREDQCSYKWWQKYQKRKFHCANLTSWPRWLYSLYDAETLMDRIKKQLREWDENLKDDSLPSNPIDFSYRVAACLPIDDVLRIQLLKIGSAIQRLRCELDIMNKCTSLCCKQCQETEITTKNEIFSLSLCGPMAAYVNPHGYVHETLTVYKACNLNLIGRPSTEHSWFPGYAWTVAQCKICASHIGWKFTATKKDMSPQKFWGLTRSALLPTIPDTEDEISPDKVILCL
T1 sequence (Q16531 whole entry, chain 2 of 2, the tested form may be a part): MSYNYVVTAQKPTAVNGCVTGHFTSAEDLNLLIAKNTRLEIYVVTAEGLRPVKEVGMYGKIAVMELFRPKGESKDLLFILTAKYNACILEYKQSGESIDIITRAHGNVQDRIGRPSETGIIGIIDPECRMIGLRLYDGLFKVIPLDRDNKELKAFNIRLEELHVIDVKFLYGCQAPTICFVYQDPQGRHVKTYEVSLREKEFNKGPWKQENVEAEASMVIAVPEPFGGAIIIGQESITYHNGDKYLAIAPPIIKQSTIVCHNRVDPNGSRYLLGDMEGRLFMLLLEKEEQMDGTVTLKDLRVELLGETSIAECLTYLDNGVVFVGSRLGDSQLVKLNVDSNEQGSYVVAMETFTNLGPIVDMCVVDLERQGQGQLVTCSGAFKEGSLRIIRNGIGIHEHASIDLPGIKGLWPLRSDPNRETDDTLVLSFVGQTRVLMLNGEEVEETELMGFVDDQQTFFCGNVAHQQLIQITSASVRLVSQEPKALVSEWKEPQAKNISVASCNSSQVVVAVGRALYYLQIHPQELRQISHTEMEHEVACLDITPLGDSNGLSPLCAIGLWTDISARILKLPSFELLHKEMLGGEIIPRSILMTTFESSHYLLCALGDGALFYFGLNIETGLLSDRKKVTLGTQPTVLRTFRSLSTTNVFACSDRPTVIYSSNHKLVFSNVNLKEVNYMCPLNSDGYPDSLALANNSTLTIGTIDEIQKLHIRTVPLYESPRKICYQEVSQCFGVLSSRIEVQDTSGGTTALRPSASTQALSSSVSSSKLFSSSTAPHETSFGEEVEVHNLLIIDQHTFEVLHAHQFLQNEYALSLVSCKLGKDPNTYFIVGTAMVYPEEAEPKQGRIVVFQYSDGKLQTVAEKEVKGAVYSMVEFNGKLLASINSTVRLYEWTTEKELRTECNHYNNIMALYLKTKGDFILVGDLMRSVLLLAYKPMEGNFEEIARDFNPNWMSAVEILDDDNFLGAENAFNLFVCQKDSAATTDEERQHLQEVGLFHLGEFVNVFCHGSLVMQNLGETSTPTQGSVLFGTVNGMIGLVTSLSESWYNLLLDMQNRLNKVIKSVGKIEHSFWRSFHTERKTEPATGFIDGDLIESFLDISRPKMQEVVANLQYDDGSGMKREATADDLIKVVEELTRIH

B1: Human SALL4 ZF1-2(379–432) (domain or fragment)
chain: LYKHKCKYCSKVFGTDSSLQIHLRSHTGERPFVCSVCGHRFTTKGNLKVHFHRH
As to B1, the Kd (commonly the equilibrium constant for the complex coming apart) in test [1] turned out to be 150000 nM; in test [3], 2100 nM. For the same molecule, the koff (in general, the first-order rate constant of dissociation) was determined as 0.34 s⁻¹ in test [2] and 0.26 s⁻¹ in test [4].

B2: Human SALL4 ZF1-2(370–454) (domain or fragment)
chain: DVKPKDEAALYKHKCKYCSKVFGTDSSLQIHLRSHTGERPFVCSVCGHRFTTKGNLKVHFHRHPQVKANPQLFAEFQDKVAAGNG
With B2, the Kd worked out at 280 nM in test [1], 310 nM in test [5], 60 nM in test [3] and 60 nM in test [6]. Besides, the results for the koff in test [2] and in test [4] were 0.042 s⁻¹ and 0.015 s⁻¹, respectively.

B3: Human SALL4 ZF2(405–432) (domain or fragment)
chain: not shown
In turn, B3 showed a Kd in test [6] of 67100 nM.

Take TGERPFVCSVCGHRFTTKGNLKVHFHRHPQVKA (domain or fragment) [Human SALL4 ZF2(405–437)]: the Kd in test [5] was 4000 nM.

Turning to TGERPFVCSVCGHRFTTKGNLKVHFHRHPQVKANPQLFAEFQDKVAAGNG (domain or fragment) [Human SALL4 ZF2(405–454)], the Kd was 2100 nM in test [5] and 700 nM in test [6].

These data come from article PMC10716131 (2023).
